Assay results taken from patent publication US20240228986A1, “ENGINEERED CELLS, ENZYMES, AND METHODS FOR PRODUCING CANNABINOIDS” (priority 2021, published 2024).

Key:
Assay type in all cases: cell-based, Yarrowia
hexanoic acid = assay: GPS-PKC-MPT fusions, hexanoic acid feed in vivo assay (Example 13); conditions: hexanoic acid 2.5 mM plus 5 mM after 24 h, 48 h quench; strain SB-00311 + pCL-SE-0274; average of 44 or 34 transformants
Procedure: Strain SB-00311 (HCS2, PKS1.1 and PKC1.1) was co-transformed with 1) a construct (pCL-SE-0274) for expression of HMGR and GPS1.1 and 2) a construct (pCL-SE-0406) for expression of a fusion protein that contains, from N- to C-terminus, GPS1.1 and MPT4 linked using the F11 linker sequence or a construct (pCL-SE-0474) for expression of a fusion protein that contains, from N- to C-terminus, GPS1.1, PKC1.1 and MPT4, each linked using the F11 linker sequence.
Transformants were assessed for CBGA production from hexanoic acid. Assay cultures consisted of YNBD+CAA media with 2.5 mM hexanoic acid. After 24 h, an additional 5 mM hexanoic acid was added to each assay culture. Cultures were quenched after 48 h total growth.
Overnight YPD (10 g/L yeast extract, 20 g/L peptone, 2% dextrose) cultures were inoculated from glycerol stocks of the appropriate strain and grown at 30° C. with 250 rpm shaking. Once cultures had reached an OD600 of 4-6, cultures were centrifuged at 500×g for 5 min, supernatants were discarded, and cell pellets were resuspended in equal volume of water. Resuspended cells were centrifuged at 500×g for 5 min, supernatants were discarded, and cells were resuspended in a volume (75 μL×OD×Vculture) of transformation cocktail (45% PEG-400, 0.1 M LiAc, 0.1 M DTT, and 25 ug/100 μL SS Salmon Sperm DNA). For each transformation, >1 μg of plasmid DNA was added to 55 μL cells/transformation cocktail and vortexed for 2 s. Transformations were incubated at 39° C. for 1 h with 250 rpm shaking. Transformations were resuspended in 750 μL YPD with 1 M sorbitol and recovered at 30° C. overnight with 250 rpm shaking. […] Precipitates were pelleted by centrifuging at 4600×g for 10 min and then 200 μL was transferred to fresh plates, sealed, and analyzed via HPLC.
All samples were quenched with equal volume of EtOH containing 0.2 mg/mL internal standard (3,5-Diisopropyl-2-hydroxybenzoic acid CAS #2215-21-6) centrifuged, and clarified solutions were analyzed by HPLC-MS […]

divarinic acid = assay: MPT fusions with GPS1.1 vs unfused MPTs, DVA feed (Example 9, Table 11); conditions: 2 mM divarinic acid, 2% glucose, quenched after 48 h; strain sCL-SE-0128
Procedure, shortened: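 Strain sCL-SE-0128 transformed with MPT or fused-MPT plasmids, several colonies each, precultured 48 h in YNB/glucose/casamino acids/MES pH 6.5. Assay medium carried 2 mM divarinic acid; cultures quenched with ethanol at 48 h total growth and CBGVA and FCBGVA quantified by HPLC-MS against internal standard, averaged over replicates.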

olivetolic acid [1] = assay: Fusions of different GPSs with MPT4, in vivo assay (Example 7); conditions: 1 mM olivetolic acid, 72 h quench
Procedure: As described below, plasmids pCL-SE-0337, 0406, 0452 and 0453 were transformed into strain sCL-SE-0128. Multiple colonies per transformation were precultured for 24 h in YNB containing glycerol (2%), casamino acids (0.5%), and MES (100 mM pH 6.5). Pre-culture was used to inoculate assay medium comprised of YNB containing glycerol (2%), casamino acids (0.5%), MES (100 mM pH 6.5), and olivetolic acid (1 mM). Cultures were quenched after 72 h total growth and assayed for CBGA and F-CBGA. Averages and standard deviations were calculated from replicates.
However, sCL-SE-0128 expresses HMGR and GPS1.1 to increase intracellular GPP levels for prenylation of OA to CBGA. The plasmids that were transformed contain a gene expressing a fusion between two different GPSs and a prenyl-transferase. The same linker is used for all constructs. […] Additionally, as illustrated by GPS2 (pCL-SE-0453), certain GPS-MPT combinations result in very high CBGA/ FCBGA ratios.
(§1) Overnight YPD (10 g/L yeast extract, 20 g/L peptone, 2% dextrose) cultures were inoculated from glycerol stocks of the appropriate strain and grown at 30° C. with 250 rpm shaking. Once cultures had reached an OD600 of 4-6, cultures were centrifuged at 500×g for 5 min, supernatants were discarded, and cell pellets were resuspended in equal volume of water. Resuspended cells were centrifuged at 500×g for 5 min, supernatants were discarded, and cells were resuspended in a volume (75 μL×OD×Vculture) of transformation cocktail (45% PEG-400, 0.1 M LiAc, 0.1 M DTT, and 25 ug/100 μL SS Salmon Sperm DNA). For each transformation, >1 μg of plasmid DNA was added to 55 μL cells/transformation cocktail and vortexed for 2 s. Transformations were incubated at 39° C. for 1 h with 250 rpm shaking. Transformations were resuspended in 750 μL YPD with 1 M sorbitol and recovered at 30° C. overnight with 250 rpm shaking. The next day, transformations were centrifuged at 500×g for 5 min, supernatants were discarded, and cell pellets were resuspended in 750 YPD. Resuspended transformations were plated on YPD with appropriate selection or YNBD (6.71 g/L yeast nitrogen base+nitrogen, 0.5% casamino acids, 2% dextrose) agar plates and grown at 30° C. for 2 days. Individual colonies were patched onto YPD plates with appropriate selection or YNBD plates and grown at 30° C. overnight. Patches were used to inoculate 0.5 mL YPD with appropriate selection or YNBD precultures in 96 w blocks and grown at 30° C. for 24-48 h with 1000 rpm shaking. For assays, 0.5 mL YPD with appropriate selection or YNBD cultures containing substrate were inoculated with 2 μL from precultures and grown at 30° C. for 2-4 days with 1000 rpm shaking with 2% glucose added every 24 h. Assay cultures were quenched by addition of 0.5 mL ethanol with 0.2% formic acid and 0.5 mg/mL pentyl-benzoic acid. Precipitates were pelleted by centrifuging at 4600×g for 10 min and then 200 μL was transferred to fresh plates, sealed, and analyzed via HPLC.
(§2) All samples were quenched with equal volume of EtOH containing 0.2 mg/mL internal standard (3,5-Diisopropyl-2-hydroxybenzoic acid CAS #2215-21-6) centrifuged, and clarified solutions were analyzed by HPLC-MS
(§3) • Column: 2.1×50 mm COSMOCORE PBr (Nacalai USA, Inc.) • Mobile Phase: A; 0.1% formic acid in water, B; 0.1% formic acid in acetonitrile • Flow: 0.45 mL/min • Temp: % 50 Celsius • Gradient: 20%B at 0 min, 70%B at 2.3 min, 89% B at 4.2 min, 20% B at 4.3 min, 20%B at 6 min

olivetolic acid [2] = assay: MPT4.1 with and without GPS1.1 fusion vs MPT4 fusion, in vivo assay (Example 5); conditions: 3 mM olivetolic acid, 48 h quench
Procedure: As described below, plasmids pCL-SE-0337.MPT4.1 and pCL-SE-0753 were transformed into strain sCL-SE-0128. Multiple colonies per transformation were precultured for 24 h in YNB containing glucose (2%), casamino acids (0.5%), and MES (100 mM pH 6.5). Pre-culture was used to inoculate assay medium comprised of YNB containing glucose (6%), casamino acids (0.5%), MES (100 mM pH 6.5), and olivetolic acid (3 mM). Cultures were quenched with equal volume of ethanol after 48 h total growth and assayed for CBGA and FCBGA. Averages and standard deviations were calculated from replicates.
as §1, §2, §3

[3] = 2% glycerol, strain sCL-SE-0128

B1: GPS1.1-F11-MPT4: fusion of GPS1.1 and MPT4 via F11 linker, SEQ ID NO: 16 (protein)
chain: MSKAKFESVFPRISEELVQLLRDEGLPQDAVQWFSDSLQYNCVGGKLNRGLSVVDTYQLLTGKKELDDEEYYRLALLGWLIELLQAFWLVSDDIMDESKTRRGQPCWYLKPKVGMIAIWDAFMLESGIYILLKKHFRQEKYYIDLVELFHDISFKTELGQLVDLLTAPEDEVDLNRFSLDKHSFIVRYKTAYYSFYLPVVLAMYVAGITNPKDLQQAMDVLIPLGEYFQVQDDYLDNFGDPEFIGKIGTDIQDNKCSWLVNKALQKATPEQRQILEDNYGVKDKSKELVIKKLYDDMKIEQDYLDYEEEVVGDIKKKIEQVDESRGFKKEVLNAFLAKIYKRQKGGAEAAAKEAAAKAGGSGGGSGGGGSGGSGGGGSGGGGSMSDNSIATKILNFGHTCWKLQRPYVVKGMISIACGLFGRELFNNRHLFSWGLMWKAFFALVPILSFNFFAAIMNQIYDVDIDRINKPDLPLVSGEMSIETAWILSIIVALTGLIVTIKLKSAPLFVFIYIFGIFAGFAYSVPPIRWKQYPFTNFLITISSHVGLAFTSYSATTSALGLPFVWRPAFSFIIAFMTVMGMTIAFAKDISDIEGDAKYGVSTVATKLGARNMTFVVSGVLLLNYLVSISIGIIWPQVFKSNIMILSHAILAFCLIFQTRELALANYASAPSRQFFEFIWLLYYAEYFVYVFI
modifications: GPS1.1-F11-MPT4, geranyl diphosphate synthase, membrane-bound prenyltransferase fusion protein
Work on B1 yielded a CBGA (hexanoic acid) of 55.9 ± 26.4 µM, a CBGVA (divarinic acid) of 45 ± 2 µM and an FCBGVA (divarinic acid) of 0 ± 0 µM. It also gave a CBGA (olivetolic acid [1]; [3]) of 376 ± 41 µM, an FCBGA (olivetolic acid [1]; [3]) of 51 ± 5 µM and a CBGA/FCBGA (olivetolic acid [1]; product ratio) of 7.4. It also gave a CBGA (olivetolic acid [2]; 6% glucose, strain sCL-SE-0128) of 326 ± 16 µM, an FCBGA (olivetolic acid [2]; 6% glucose, strain sCL-SE-0128) of 62 ± 2 µM and a CBGA/FCBGA (olivetolic acid [2]; product ratio) of 5.2.
